The results in this text go back to patent publication US20190359687A1 (Bayer, published 2019).

The target in test [1] is T1, native human glycophorin A protein (human, UniProt P02724 20-150).
T1 construct: mature; also called Hu-nat GPA
T1 sequence (looked up): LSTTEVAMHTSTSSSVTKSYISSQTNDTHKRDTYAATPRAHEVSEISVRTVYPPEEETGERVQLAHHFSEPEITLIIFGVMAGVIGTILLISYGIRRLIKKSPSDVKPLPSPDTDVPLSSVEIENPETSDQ
The experiment in a line: ELISA, Fab on coated native human GPA.

Test [2] concerns the target T2, human glycophorin A on human red blood cells or red blood cell membranes (human, UniProt P02724 20-150).
T2 construct: whole, on cells; also called hRBC; human RBC membranes
T2 sequence (looked up): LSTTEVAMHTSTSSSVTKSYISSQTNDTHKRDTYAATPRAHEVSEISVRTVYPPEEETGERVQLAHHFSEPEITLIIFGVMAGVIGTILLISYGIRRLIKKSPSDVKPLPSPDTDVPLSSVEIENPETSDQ
Briefly: SPR (Biacore), Fab over human RBC membranes, 1:1 fit.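 Further: human RBC membrane preparations captured on an L1 sensor surface, with antibody passed over them as analyte.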
Protocol: Kinetic analysis of the antibody binding to human red blood cell membranes was also performed using surface plasmon resonance (SPR) using a Biacore instrument. In this assay membranes prepared from human red blood cells were attached to a L1 sensor matrix and antibodies were flowed over the RBC membranes.

For test [3], the target named is T3, Cynomolgus monkey recombinant glycophorin A ectodomain (Cynomolgus monkey).
T3 construct: extracellular domain
Briefly: ELISA, Fab on coated recombinant cyno GPA ectodomain.

Test [4] deals with T2, human glycophorin A on human red blood …. Briefly: ELISA, Fab on coated human RBC membranes.
Test [5] concerns the target T4, recombinant human glycophorin A ectodomain protein (human, UniProt P02724 20-91).
T4 construct: 72 amino acids of the extracellular region; also called Hu-rec GPA
T4 sequence: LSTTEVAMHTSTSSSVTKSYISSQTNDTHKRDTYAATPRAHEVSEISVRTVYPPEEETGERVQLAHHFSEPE
The experiment in a line: ELISA, Fab on coated recombinant human GPA ectodomain.

Test [6] has as its target T5, Rhesus monkey glycophorin A on Rhesus monkey red blood cells (Rhesus monkey, UniProt A0A1D5Q349 20-150).
T5 construct: whole, on cells; also called Rhesus RBC; monkey GPA
T5 sequence: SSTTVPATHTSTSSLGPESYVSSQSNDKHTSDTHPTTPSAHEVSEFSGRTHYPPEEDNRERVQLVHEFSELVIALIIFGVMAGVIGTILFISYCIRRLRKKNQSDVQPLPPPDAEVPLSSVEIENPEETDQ
The experiment in a line: FACS, RBC Rh01.
Protocol: (§1) The binding of the humanized variants to intact red blood cells (RBC) from humans (Hu01 to 03; 3 individuals), Rhesus monkey (Rh01 to 03; 3 individuals) and Cynomolgus monkey (Cy01 to 02; 2 individuals) was measured by fluorescence activated cell sorting (FACS).

Test [7] has as its target T5, Rhesus monkey glycophorin A on Rhesus …. The experiment in a line: FACS, RBC Rh03.
Protocol: as §1
The target in test [8] is T6, Cynomolgus monkey glycophorin A on Cynomolgus monkey red blood cells (Cynomolgus monkey).
T6 construct: whole, on cells; also called Cyno RBC; Cyno GPA
The experiment in a line: FACS, RBC Cy02.
Protocol: as §1

The target of test [9] is T6, Cynomolgus monkey glycophorin A on …. The experiment in a line: FACS, RBC Cy01.
Protocol: as §1
Test [10] concerns the target T5, Rhesus monkey glycophorin A on Rhesus …. The experiment in a line: FACS, RBC Rh02.
Test [11] has as its target T7, human glycophorin A in the red blood cell membrane (human, UniProt P02724 20-150).
T7 construct: whole, on cells; used for intact RBC, isolated RBC membranes and transfected cells; the assay field tells which; also called GPA; hGPA
T7 sequence (looked up): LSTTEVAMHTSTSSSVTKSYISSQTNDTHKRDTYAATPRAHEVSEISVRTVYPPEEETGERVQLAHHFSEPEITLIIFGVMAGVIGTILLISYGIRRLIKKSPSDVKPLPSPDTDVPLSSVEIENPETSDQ
The experiment in a line: FACS, RBC Hu03.
Protocol: as §1

Test [12] deals with T7, human glycophorin A in the red blood …. The experiment in a line: FACS, RBC Hu01.
Protocol: as §1
Test [13] shares this target. The experiment in a line: FACS, RBC Hu02.
Protocol: as §1

B1: TPP-5840, Hu6C12-24 Fab variant VL: (S24R, A26S, S49A, P54Q, F95Y); VH: (L70M, T72R) (Fab, V domains shown)
VH: EVQLVQSGAEVKKPGASVKVSCKASGYTFTTYTIHWVRQAPGQGLEWIGYINPSSDYTRYNPKFKDRVTMTRDKSTSTAYMELRSLRSDDTAVYYCQTGTRDYWGQGTTVTVSS
VL: DIQLTQSPSFLSASVGDRVTITCRASSSVSYIYWFQQKPGKAPKLLIYATSTLQSGVPSRFSGSGSGTEYTLTISSLQPEDFATYYCHQRNSFPYTFGQGTKLEIKR
notes: Built on the parental Fab TPP-4935
Take B1: the “binding in ELISA relative to parental Fab” value in test [1] is 5.3 relative to parental Fab; in [3], 1 relative to parental Fab; in test [4], 6 relative to parental Fab; in [5] it was 4.2 relative to parental Fab. In test [2], this molecule showed a Kd of 4.1 nM. Also, the off-rate constant (koff) in [2] turned out to be 0.0046 s⁻¹. The same molecule returned a kon in [2] of 1.1e+06 M⁻¹ s⁻¹.

B2: Hu6C12-21 (antibody, V domains shown)
VH: EVQLVQSGAEVKKPGASVKVSCKASGYTFTTYTIHWVRQAPGQGLEWMGYINPSSDYTRYNPKFKDRVTLTTDTSTSTAYMELRSLRSDDTAVYYCQRGTRDYWGQGTTVTVSS
VL: DIQLTQSPSFLSASVGDRVTITCSAASSVSYIYWFQQKPGKAPKLLIYSTSTLPSGVPSRFSGSGSGTEYTLTISSLQPEDFATYYCHQRNSFPFTFGQGTKLEIK
notes: IgG format; VH.1d + Vk.1b
For the molecule B2, the fluorescence intensity in test [6] is 1470; in test [7], 1340; in test [8], 1120; in test [9], 908; in test [10], 1330.

B3: Hu6C12-14 (antibody, V domains shown)
VH: EVQLVQSGAEVKKPGASVKVSCKASGYTFTTYTIHWVRQAPGQGLEWMGYINPSSDYTRYNPKFKDRVTLTTDTSTSTAYMELRSLRSDDTAVYYCATGTRDYWGQGTTVTVSS
VL: DIQLTQSPSFLSASVGDRVTITCSAASSVSYIYWYQQKPGKAPKLLIYSTSTLPSGVPSRFSGSGSGTEYTLTISSLQPEDFATYYCHQRNSFPFTFGQGTKLEIK
notes: IgG format; VH.1e + Vk.1a
On to B3, for which the fluorescence intensity in test [6] turned out to be 1480; in [7] it was 1480; in [11], 384; in test [8], 1080; in test [12] it was 514; in [13] it was 298. The fluorescence intensity was determined as 978 in [9] and 1480 in test [10].

B4: Hu6C12-11 (antibody, V domains shown)
VH: EVQLVQSGAEVKKPGASVKVSCKASGYTFTTYTIHWVRQAPGQGLEWMGYINPSSDYTRYNPKFKDRVTMTTDTSTSTAYMELRSLRSDDTAVYYCATGTRDYWGQGTTVTVSS
VL: DIQLTQSPSFLSASVGDRVTITCSAASSVSYIYWYQQKPGKAPKLLIYSTSTLPSGVPSRFSGSGSGTEYTLTISSLQPEDFATYYCHQRNSFPFTFGQGTKLEIK
notes: IgG format; VH.1b + Vk.1a
In the case of B4, the fluorescence intensity in [6] was 1530; in test [7], 1420; in test [11] it was 387; in test [8] it was 1020; in test [12], 548; in test [13], 315. The fluorescence intensity was 960 in test [9] and 1440 in test [10].

B5: TPP-5842, Hu6C12-24 Fab variant VL: (S24R, A26S, S49A, P54Q, F95Y); VH: (D66G, L70M, T72R) (Fab, V domains shown)
VH: EVQLVQSGAEVKKPGASVKVSCKASGYTFTTYTIHWVRQAPGQGLEWIGYINPSSDYTRYNPKFKGRVTMTRDKSTSTAYMELRSLRSDDTAVYYCQTGTRDYWGQGTTVTVSS
VL: DIQLTQSPSFLSASVGDRVTITCRASSSVSYIYWFQQKPGKAPKLLIYATSTLQSGVPSRFSGSGSGTEYTLTISSLQPEDFATYYCHQRNSFPYTFGQGTKLEIKR
notes: as for B1
For B5, the “binding in ELISA relative to parental Fab” value in test [1] was 5.9 relative to parental Fab; in test [3], 1.1 relative to parental Fab; in test [4], 7 relative to parental Fab; in test [5] it was 4.7 relative to parental Fab. In test [2], this molecule gave a dissociation constant Kd of 3.9 nM. Moreover, the koff in test [2] is 0.0059 s⁻¹. In addition, the kon in test [2] is 1.5e+06 M⁻¹ s⁻¹.
